# Measured values published in PMC9646525, “Cryo-EM structure of the SEA complex” (Nature, 2022).
# T1: Sea2 (S. cerevisiae (endogenous in yeast …, UniProt Q08281 1-1341))
# T1 construct: Sea2, S. cerevisiae, endogenous subunit of the SEAC (SEACAT, core); Native protein of the purified complex; two copies in the SEAC; source: endogenous, yeast cells expressing Sea4-TAP; in lysate and co-purified with Sea4-TAP (IgG Dynabeads, TEV elution)
# T1 sequence (looked up): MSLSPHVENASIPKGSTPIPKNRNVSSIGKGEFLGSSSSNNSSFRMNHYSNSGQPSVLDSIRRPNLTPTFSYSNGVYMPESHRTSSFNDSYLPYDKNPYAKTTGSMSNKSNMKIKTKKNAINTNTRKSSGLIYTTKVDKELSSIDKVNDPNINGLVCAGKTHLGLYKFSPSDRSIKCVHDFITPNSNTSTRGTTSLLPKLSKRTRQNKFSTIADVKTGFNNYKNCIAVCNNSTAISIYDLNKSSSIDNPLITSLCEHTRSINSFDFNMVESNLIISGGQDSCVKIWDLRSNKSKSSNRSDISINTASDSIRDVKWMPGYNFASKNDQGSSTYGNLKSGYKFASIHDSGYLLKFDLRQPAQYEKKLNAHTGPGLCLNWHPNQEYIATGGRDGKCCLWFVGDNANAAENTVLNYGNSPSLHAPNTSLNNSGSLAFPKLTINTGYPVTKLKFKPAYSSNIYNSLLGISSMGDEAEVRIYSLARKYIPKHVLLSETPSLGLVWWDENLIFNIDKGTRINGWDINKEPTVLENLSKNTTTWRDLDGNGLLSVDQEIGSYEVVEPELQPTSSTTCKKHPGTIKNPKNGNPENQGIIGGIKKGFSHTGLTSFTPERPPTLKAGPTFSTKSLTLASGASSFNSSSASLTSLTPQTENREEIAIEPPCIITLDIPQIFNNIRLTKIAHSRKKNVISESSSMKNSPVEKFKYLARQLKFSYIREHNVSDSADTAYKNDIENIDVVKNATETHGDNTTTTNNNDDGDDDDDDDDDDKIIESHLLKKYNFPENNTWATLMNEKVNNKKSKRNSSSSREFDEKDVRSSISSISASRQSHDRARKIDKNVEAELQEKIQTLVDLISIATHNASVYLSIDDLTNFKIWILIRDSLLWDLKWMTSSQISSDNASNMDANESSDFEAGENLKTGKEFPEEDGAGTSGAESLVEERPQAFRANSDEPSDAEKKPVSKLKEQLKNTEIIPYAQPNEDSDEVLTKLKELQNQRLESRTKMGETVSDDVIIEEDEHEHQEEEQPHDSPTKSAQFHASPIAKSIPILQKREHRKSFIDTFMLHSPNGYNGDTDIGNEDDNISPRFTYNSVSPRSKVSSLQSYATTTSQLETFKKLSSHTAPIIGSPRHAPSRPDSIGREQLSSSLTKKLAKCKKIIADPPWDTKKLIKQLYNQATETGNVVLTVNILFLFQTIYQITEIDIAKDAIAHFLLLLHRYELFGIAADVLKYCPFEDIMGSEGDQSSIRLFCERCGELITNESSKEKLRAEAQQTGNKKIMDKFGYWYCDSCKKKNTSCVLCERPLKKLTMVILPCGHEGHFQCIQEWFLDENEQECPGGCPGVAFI
# B1: Seh1 (natural protein, UniProt P53011 1-349, looked up)
# chain: MQPFDSGHDDLVHDVVYDFYGRHVATCSSDQHIKVFKLDKDTSNWELSDSWRAHDSSIVAIDWASPEYGRIIASASYDKTVKLWEEDPDQEECSGRRWNKLCTLNDSKGSLYSVKFAPAHLGLKLACLGNDGILRLYDALEPSDLRSWTLTSEMKVLSIPPANHLQSDFCLSWCPSRFSPEKLAVSALEQAIIYQRGKDGKLHVAAKLPGHKSLIRSISWAPSIGRWYQLIATGCKDGRIRIFKITEKLSPLASEESLTNSNMFDNSADVDMDAQGRSDSNTEEKAELQSNLQVELLSEHDDHNGEVWSVSWNLTGTILSSAGDDGKVRLWKATYSNEFKCMSVITAQQ
# notes: Seh1, S. cerevisiae, endogenous subunit of the SEAC (SEACAT, core); Native protein of the purified complex; six copies in the SEAC; source: endogenous, yeast cells expressing Sea4-TAP; in lysate and co-purified with Sea4-TAP (IgG Dynabeads, TEV elution)
# Molecular target: T1, Sea2
# Assay: cryo-EM structure; endogenous SEAC purified from yeast via Sea4-TAP (IgG Dynabeads, TEV elution in 20 mM HEPES-NaOH pH 7.4, 300 mM NaCl, 2 mM DTT), on graphene-oxide-coated grids
# Conditions: both partners purified
binder,measurement,value
B1,binding result,binds
